The labels stand for the following.
B1: MATN2 (parent)
chain: FSLKTFKRKSEVERAVKRMRHLST
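Also: lentivirally expressed fusions sorted by FACS into six bins by GFP to DsRed ratio, PSI derived from sequencing read proportions per bin multiplied by bin number.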

Variants of B1 are the subject of this data set. Description: protein stability index of a GFP-peptide fusion (GPS, HEK-293T) (PSI 1-6); higher = more stable. The note with it: c terminus: a fixed tail appended.
In the case of FSLKTFKRKSEVFRAVKRMRHLST [E13F], the protein stability index worked out at 2.08. Then FSLKTFKRKSEVDRAVKRMRHLST [E13D], with 2.52; and FSLKTFKRKSEVNRAVKRMRHLST [E13N], with 2.83; and FSLKTFKRKSEVMRAVKRMRHLST [E13M], with 2.25. For the variant FSLKTFKRKSEVTRAVKRMRHLST [E13T], the protein stability index is 2.41. Take FSLKTFKRKSEVCRAVKRMRHLST [E13C]: the protein stability index was determined as 1.83. For FSLKTFKRKSEVKRAVKRMRHLST [E13K] the value was 2.69; for FSLKTFKRKSEVWRAVKRMRHLST [E13W], 1.4. In the case of FSLKTFKRKSEVLRAVKRMRHLST [E13L], the protein stability index came to 2.28. FSLKTFKRKSEVQRAVKRMRHLST [E13Q]: the protein stability index was 2.9. For FSLKTFKRKSEVPRAVKRMRHLST [E13P] the value was 3.15; for FSLKTFKRKSEVVRAVKRMRHLST [E13V], 2.11. For FSLKTFKRKSEVRRAVKRMRHLST [E13R] the value was 2.22; for FSLKTFKRKSEVGRAVKRMRHLST [E13G], 1.83. In the case of FSLKTFKRKSEVARAVKRMRHLST [E13A], the protein stability index worked out at 2. Take FSLKTFKRKSEVYRAVKRMRHLST [E13Y]: the protein stability index is 2.94. Then FSLKTFKRKSEVSRAVKRMRHLST [E13S], with 2.34; and FSLKTFKRKSEVHRAVKRMRHLST [E13H], with 2.37. For FSLKTFKRKSEVIRAVKRMRHLST [E13I] the value was 2.29; for FSLKTFKRKSYVERAVKRMRHLST [E11Y], 2.09; for FSLKTFKRKSVVERAVKRMRHLST [E11V], 2.38. Then FSLKTFKRKSTVERAVKRMRHLST [E11T], with 2.99; and FSLKTFKRKSEVERAVKRMRHAST [L22A], with 2.81; and FSLKTFKRKSEVERAVKRMRHEST [L22E], with 3.18.

Consider FSLKTFKRKSEVERAVKRMRHDST [L22D], for which the protein stability index amounted to 2.96. Then FSLKTFKRKSEVERAVKRMRHHST [L22H], with 2.59.

For the variant FSLKTFKRKSEVERAVKRMRHGST [L22G], the protein stability index came to 2.79. For the variant FSLKTFKRKSEVERAVKRMRHKST [L22K], the protein stability index was determined as 3.09. Regarding FSLKTFKRKSEVERAVKRMRHCST [L22C], the protein stability index was 2.79. Regarding FSLKTFKRKSEVERAVKRMRHIST [L22I], the protein stability index came to 2.36. For FSLKTFKRKSEVERAVKRMRHFST [L22F] the value was 2.1. For FSLKTFKRKSEVERAEKRMRHLST [V16E], the protein stability index is 2.43. On to FSLKTFKRKSEVERAQKRMRHLST [V16Q], for which the protein stability index is 2.92. Then FSLKTFKRKSEVERAFKRMRHLST [V16F], with 3.4; and FSLKTFKRKSEVERASKRMRHLST [V16S], with 2.57. Then FSLKTFKRKSEVERAAKRMRHLST [V16A], with 2.82.

As for FSLKTFKRKSEVERADKRMRHLST [V16D], the protein stability index amounted to 2.15. Turning to FSLKTFKRKSEVERARKRMRHLST [V16R], the protein stability index is 2.48. Take FSLKTFKRKSEVERAWKRMRHLST [V16W]: the protein stability index amounted to 1.76. For the variant FSLKTFKRKSEVERANKRMRHLST [V16N], the protein stability index came out at 2.47.

With FSLKTFKRKSEVERAMKRMRHLST [V16M], the protein stability index was determined as 2.93.

On to FSLKTFKRKSEVERAYKRMRHLST [V16Y], for which the protein stability index came out at 2.1. For FSLKTFKRKSEVERALKRMRHLST [V16L] the value was 1.51. Then FSLKTFKRKSEVERAPKRMRHLST [V16P], with 2.33; and FSLKTFKRKSEVERATKRMRHLST [V16T], with 3.1.

As for FSLKTFKRKSEVERAHKRMRHLST [V16H], the protein stability index was found to be 2.19. For FSLKTFKRKSEVERAIKRMRHLST [V16I] the value was 2.07; for FSLKTFKRKSEVERAGKRMRHLST [V16G], 2.71; for FSLKTFKRKSEVERACKRMRHLST [V16C], 2.48. For FSLKTFKRKSEGERAVKRMRHLST [V12G] the value was 2.91; for FSLKTFKRKSEYERAVKRMRHLST [V12Y], 2.12; for FSLKTFKRKSECERAVKRMRHLST [V12C], 2.25.

Regarding FSLKTFKRKSERERAVKRMRHLST [V12R], the protein stability index stood at 3.19. For FSLKTFKRKSESERAVKRMRHLST [V12S] the value was 2.98. As for FSLKTFKRKSELERAVKRMRHLST [V12L], the protein stability index was 2.56. Then FSLKTFKRKSEMERAVKRMRHLST [V12M], with 2.11; and FSLKTFKRKSETERAVKRMRHLST [V12T], with 2.38. For FSLKTFKRKSEFERAVKRMRHLST [V12F] the value was 1.4; for FSLKTFKRKSENERAVKRMRHLST [V12N], 1.87; for FSLKTFKRKSEEERAVKRMRHLST [V12E], 2.34.

As to FSLKTFKRKSEQERAVKRMRHLST [V12Q], the protein stability index was 3.15.

With FSLKTFKRKSEPERAVKRMRHLST [V12P], the protein stability index was 2.5. Then FSLKTFKRKSEAERAVKRMRHLST [V12A], with 2.36. Turning to FSLKTFKRKSEKERAVKRMRHLST [V12K], the protein stability index stood at 3.17. For FSLKTFKRKSEHERAVKRMRHLST [V12H] the value was 2.54.

Turning to FSLKTFKRKSEWERAVKRMRHLST [V12W], the protein stability index was 1.24. As to FSLKTFKRKSEVERAVKRMRNLST [H21N], the protein stability index is 2.4.

As to FSLKTFKRKSEVERAVKRMRILST [H21I], the protein stability index was 1.76. Turning to FSLKTFKRKSEVERAVKRMRDLST [H21D], the protein stability index came out at 2.76. As to FSLKTFKRKSEVERAVKRMRRLST [H21R], the protein stability index is 2.41. Then FSLKTFKRKSEVERAVKRMRGLST [H21G], with 1.75; and FSLKTFKRKSEVERAVKRMRQLST [H21Q], with 1.87; and FSLKTFKRKSEVERAVKRMRELST [H21E], with 2.28. As for FSLKTFKRKSEVERAVKRMRVLST [H21V], the protein stability index worked out at 1.3. FSLKTFKRKSEVERAVKRMRFLST [H21F]: the protein stability index turned out to be 1.99. Consider FSLKTFKRKSEVERAVKRMRALST [H21A], for which the protein stability index turned out to be 2.77.

For FSLKTFKRKSEVERAVKRMRLLST [H21L], the protein stability index worked out at 1.46.

With FSLKTFKRKSEVERAVKRMRYLST [H21Y], the protein stability index came out at 2.84. Regarding FSLKTFKRKSEVERAVKRMRPLST [H21P], the protein stability index was found to be 2.58. For FSLKTFKRKSEVERAVKRMRTLST [H21T] the value was 2.72.

On to FSLKTFKRKSEVERAVKRMRCLST [H21C], for which the protein stability index stood at 2.28. For FSLKTFKRKSEVERAVKRMRKLST [H21K] the value was 3.76; for FSLKTFKRKSEVERAVKRMRSLST [H21S], 1.68.

For the variant FSLKTFKRKSEVERYVKRMRHLST [A15Y], the protein stability index is 1.59.

FSLKTFKRKSEVEREVKRMRHLST [A15E]: the protein stability index stood at 2.73. For FSLKTFKRKSEVERWVKRMRHLST [A15W] the value was 2.17. Then FSLKTFKRKSEVERVVKRMRHLST [A15V], with 2.27; and FSLKTFKRKSEVERHVKRMRHLST [A15H], with 2.87; and FSLKTFKRKSEVERMVKRMRHLST [A15M], with 2.2.

Turning to FSLKTFKRKSEVERNVKRMRHLST [A15N], the protein stability index worked out at 2.81. Then FSLKTFKRKSEVERSVKRMRHLST [A15S], with 2.33; and FSLKTFKRKSEVERGVKRMRHLST [A15G], with 2.35.

For FSLKTFKRKSEVERKVKRMRHLST [A15K], the protein stability index is 2.7.

Consider FSLKTFKRKSEVERQVKRMRHLST [A15Q], for which the protein stability index came to 2.58.

These data come from the supplement of paper PMC10567573.
